Measured values from patent US20060177826A1 (SERUM BIOMEDICAL INSTITUTE, published 2006).

Target: T1, human beta-FSH subunit (SDK-X1X2 expression product) (human, UniProt P01225 19-129)
T1 construct: Expressed from pTPKBFSH in co-transfected COS-7L and CHO-S cells and tested as secreted protein in the culture supernatant; also called β subunit of human FSH
Assay: FSH-IRMA sandwich immunoradiometric assay (one mAb for the alpha subunit, one for the beta subunit) on supernatant of co-transfected cells; detects only the complete alpha and beta complex
Method: Following transfection, the cells were cultured in a selective medium containing 1000 μg/ml Geneticine and 400 μg/ml Blasticidin for 7 days. Geneticine-Blasticidine-resistant cells were transferred in a new culture medium containing Geneticine (200 μg/ml) and Blasticidin (200 μg/mL), and cultured to a cell density of 10⁶ cells/ml. The supernatant of this culture was than tested for the presence of the multisubunit (alpha subunit and beta subunit non-covalently associated) FSH complex.
The presence of the alpha and beta FSH complex was detected using the BIOSOURCE FSH-IRMA Kit (Biosource Europe S.A., Cat # KIP0841-KIP0844), an immunoradiometric assay kit for the quantitation of Follicle Stimulating Hormone (FSH). This FSH-IRMA assay is based on the use of two monoclonal antibodies, one specific for the alpha subunit of FSH and one for the beta subunit of FSH. Thus this assay only detects the complete alpha and beta FSH complex. The supernatant of pLenti6/V5-glycalA and the pTPKBFSH co-transfected cells was tested using the FSH-IRMA kit according to manufacturer's instructions.

T1 sequence (P01225 19-129 limits assumed): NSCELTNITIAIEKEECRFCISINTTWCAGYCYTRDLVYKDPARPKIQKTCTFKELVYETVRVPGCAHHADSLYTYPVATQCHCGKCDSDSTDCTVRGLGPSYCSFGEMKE

B1: human alpha-FSH subunit (glycalA expression product) (ligand)
chain: not shown
notes: Expressed from pLenti6/V5-glycalA in co-transfected COS-7L and CHO-S cells and tested as secreted protein in the culture supernatant; also called alpha subunit of FSH
  binding result: binds
